Measured values from article doi:10.1101/2020.10.21.349050.
Like-named read-outs stand apart in the source and are kept apart here.

T1: GST-Swi6 (Schizosaccharomyces pombe, UniProt P40381 1-328)
T1 sequence: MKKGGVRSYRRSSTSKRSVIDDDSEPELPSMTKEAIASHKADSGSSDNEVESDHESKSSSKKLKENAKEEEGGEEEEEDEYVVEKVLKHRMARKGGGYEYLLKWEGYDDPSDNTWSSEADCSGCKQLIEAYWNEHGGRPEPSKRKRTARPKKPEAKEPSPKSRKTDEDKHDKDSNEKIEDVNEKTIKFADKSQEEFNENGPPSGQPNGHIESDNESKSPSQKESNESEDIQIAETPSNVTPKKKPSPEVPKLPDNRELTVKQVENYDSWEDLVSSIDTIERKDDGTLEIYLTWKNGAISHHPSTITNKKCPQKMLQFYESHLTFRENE

T2: GST-Swi6 3K->3A (Schizosaccharomyces pombe, UniProt P40381 1-328, K242A;K243A;K244A)
T2 sequence: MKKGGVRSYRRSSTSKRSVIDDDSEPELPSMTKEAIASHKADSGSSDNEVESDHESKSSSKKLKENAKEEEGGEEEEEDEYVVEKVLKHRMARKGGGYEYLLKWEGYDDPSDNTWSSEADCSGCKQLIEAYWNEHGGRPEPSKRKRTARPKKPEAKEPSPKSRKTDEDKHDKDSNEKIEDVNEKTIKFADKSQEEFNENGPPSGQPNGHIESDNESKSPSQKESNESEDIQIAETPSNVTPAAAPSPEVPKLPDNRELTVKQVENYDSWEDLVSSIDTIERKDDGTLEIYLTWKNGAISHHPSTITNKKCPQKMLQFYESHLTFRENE


Assays:
Assay in all cases: EMSA
GST-Swi6 [1] = target: T1, GST-Swi6
GST-Swi6 [2] = target: T1, GST-Swi6; remark: listed apart in the source
GST-Swi6 3K->3A = target: T2, GST-Swi6 3K->3A
GST-Swi6 [3] = target: T1, GST-Swi6; remark: listed apart in the source
GST-Swi6 [4] = target: T1, GST-Swi6; remark: listed apart in the source
GST-Swi6 [5] = target: T1, GST-Swi6; remark: listed apart in the source

Binder | Kd (GST-Swi6 [1]) [µM] | Kd (GST-Swi6 [2]) [µM] | further results
UGGAUUAAGGAGAAGCGGUA (ssRNA) [D-For RNA] | 2.45 | 1.79 | –
D-For RNA-DNA hybrid (DNA:RNA) RNA: UGGAUUAAGGAGAAGCGGUA DNA: TACCGCTTCTCCTTAATCCA | 0.08 | 0.73 | binding result (GST-Swi6 3K->3A): no binding; Kd (GST-Swi6 [3]): 0.09 µM
UACCGCUUCUCCUUAAUCCA (ssRNA) [D-Rev RNA] | – | – | binding result (GST-Swi6 [4]): no binding
ACAAGUGAUAAGAGUAGGUGU (ssRNA) [E-For RNA] | – | – | Kd (GST-Swi6 [5]): 2.15 ± 0.1 µM
